The supplement of paper PMC7877785
± gives the uncertainty stated by the source.

Assay: self-splicing fitness, log relative to wild type (ln ratio); higher = more splicing; Tetrahymena group I intron in knt gene, E. coli kanamycin selection, DiMSum; sequences stand for … in CUCUCU…GGAGGGAAAAGUUAUCAGGCAUGCACCUGGUAGCUAGUCUUUAAACCAAUAGAUUGCAUCGGUUUAAAAGGCAAGACCGUCAAAUUGCGGGAAAGGGGUCAACAGCCGUUCAGUACCAAGUCUCAGGGGAAACUUUGAGAUGGCCUUGCAAAGGGUAUGGUAAUAAGCUGACGGACAUGGUCCUAACCACGCAGCCAAGUCCUAAGUCAACAGAUCUUCUGUUGAUAUGGAUGCAGUUCACAGACUAAAUGUCGGUCGGGGAAGAUGUAUUCUUCUCAUAAGAUAUAGUCGGACCUCUCCUUAAUGGGAGCUAGCGGAUGAAGUGAUGCAACACUGGAGCCGCUGGGAACUAAUUUGUAUGCGAAAGUAUAUUGAUUAGUUUUGGAGUACUCGUGGUCG
In short: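 Colonies from six replicate transformations of E. coli BL21(DE3) were pooled and amplicon-sequenced on an Illumina HiSeq 2500. The library placed an intron with all eight P1ex-region nucleotides randomised inside the knt kanamycin-resistance gene on pET-22b(+), and cells grew overnight at 37°C or 30°C on LB agar with or without 25 μg/mL kanamycin (plus 100 μg/mL carbenicillin, 50 μM IPTG, 0.2% rhamnose). Fitness is the DiMSum error-weighted combination of wild-type-normalised replicate fold changes, kanamycin versus none.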

Sequence	self-splicing fitness (ln) (30 °C)	self-splicing fitness (ln) (37 °C)
ACGGAGCAAUAUUACGUCGC	-2.93 ± 0.24	-1.42 ± 0.18
ACGGAGCAAUAUUACGUCGG	-3.04 ± 0.31	-0.422 ± 0.23
ACGGAGCAAUAUUACGUUCC	-3.92 ± 0.47	-2.01 ± 0.37
ACGUAGCAAUAUUACGAACA	-1.56 ± 0.24	-0.252 ± 0.2
ACGUAGCAAUAUUACGACUC	-0.301 ± 0.26	-0.584 ± 0.27
ACGUAGCAAUAUUACGACUU	-0.145 ± 0.099	0.593 ± 0.13
ACGUAGCAAUAUUACGAUAA	-1.52 ± 0.13	-1.51 ± 0.18
ACGUAGCAAUAUUACGAUAG	-3.45 ± 0.24	-2.53 ± 0.23
ACGUAGCAAUAUUACGAUCC	-1.03 ± 0.17	-0.00168 ± 0.18
ACGUAGCAAUAUUACGCACC	-1.18 ± 0.11	-0.224 ± 0.16
ACGUAGCAAUAUUACGCAGU	-2.58 ± 0.2	-2.54 ± 0.24
ACGUAGCAAUAUUACGGAAA	-2.27 ± 0.4	-1.94 ± 0.33
ACGUAGCAAUAUUACGGACC	-1.21 ± 0.16	-0.314 ± 0.2
ACGUAGCAAUAUUACGGCUC	-1.2 ± 0.12	-0.844 ± 0.15
ACGUAGCAAUAUUACGGUGC	-3.86 ± 0.4	-2.01 ± 0.22
ACGUAGCAAUAUUACGUAGC	-3.34 ± 0.27	-2.62 ± 0.35
ACGUAGCAAUAUUACGUCCA	-1.02 ± 0.14	-1.13 ± 0.15
ACGUAGCAAUAUUACGUCUU	-3.76 ± 0.16	-1.92 ± 0.15
ACGUAGCAAUAUUACGUGCG	-2.19 ± 0.1	-1.17 ± 0.11
ACGUAGCAAUAUUACGUGGU	-4.03 ± 0.18	-1.13 ± 0.094
ACGUAGCAAUAUUACGUUGU	-3.07 ± 0.11	-2.01 ± 0.14
ACUAAGCAAUAUUACGAAGU	-3.81 ± 0.38	-2.1 ± 0.35
ACUAAGCAAUAUUACGAAUG	-2.31 ± 0.13	-1.2 ± 0.14
ACUAAGCAAUAUUACGACCU	-0.123 ± 0.081	0.342 ± 0.1

Sequence	self-splicing fitness (ln) (30 °C)	self-splicing fitness (ln) (37 °C)
ACUAAGCAAUAUUACGACGU	-0.322 ± 0.066	0.158 ± 0.082
ACUAAGCAAUAUUACGAGGA	-2.34 ± 0.23	-2.13 ± 0.2
ACUAAGCAAUAUUACGAGUU	-3.56 ± 0.15	-3.42 ± 0.25
ACUAAGCAAUAUUACGAUAG	-1.34 ± 0.076	-0.427 ± 0.096
ACUAAGCAAUAUUACGCAUA	-1.9 ± 0.14	-2.14 ± 0.14
ACUAAGCAAUAUUACGCCUG	-1.78 ± 0.14	-0.595 ± 0.15
ACUAAGCAAUAUUACGCGAA	-1.57 ± 0.13	-1.22 ± 0.17
ACUAAGCAAUAUUACGCGAC	-2.71 ± 0.19	-2.78 ± 0.21
ACUAAGCAAUAUUACGCGUG	-1.58 ± 0.098	-0.684 ± 0.095
ACUAAGCAAUAUUACGCGUU	-3.36 ± 0.13	-1.58 ± 0.11
ACUAAGCAAUAUUACGGAGG	-2.52 ± 0.11	-1.16 ± 0.13
ACUAAGCAAUAUUACGGCAC	-0.673 ± 0.096	-1.92 ± 0.095
ACUAAGCAAUAUUACGGCCU	-0.171 ± 0.073	-0.475 ± 0.087
ACUAAGCAAUAUUACGGCUG	-0.108 ± 0.076	0.16 ± 0.097
ACUAAGCAAUAUUACGGGGA	-1.84 ± 0.12	-1.55 ± 0.13
ACUAAGCAAUAUUACGGUAC	-2.7 ± 0.27	-1.89 ± 0.19
ACUAAGCAAUAUUACGGUCA	-1.57 ± 0.077	-1.35 ± 0.094
ACUAAGCAAUAUUACGGUCU	-1.45 ± 0.072	-0.907 ± 0.082
ACUAAGCAAUAUUACGGUGC	-2.36 ± 0.11	-2.02 ± 0.15
ACUAAGCAAUAUUACGGUUU	-2.05 ± 0.091	-0.745 ± 0.096
ACUAAGCAAUAUUACGUAUG	-3.55 ± 0.16	-1.25 ± 0.14
ACUAAGCAAUAUUACGUCAA	-3.07 ± 0.17	-1.35 ± 0.14
ACUAAGCAAUAUUACGUCGA	-1.04 ± 0.13	-1.45 ± 0.12
ACUAAGCAAUAUUACGUGAC	-3.82 ± 0.21	-1.28 ± 0.14

Sequence	self-splicing fitness (ln) (30 °C)	self-splicing fitness (ln) (37 °C)
ACUAAGCAAUAUUACGUGAU	-1.65 ± 0.062	-1.21 ± 0.077
ACUAAGCAAUAUUACGUGCU	-1.62 ± 0.073	-1.06 ± 0.099
ACUAAGCAAUAUUACGUGGU	-3.41 ± 0.15	-2.73 ± 0.21
ACUAAGCAAUAUUACGUGUC	-3.48 ± 0.14	-3.57 ± 0.21
ACUCAGCAAUAUUACGAACG	-0.623 ± 0.1	-0.492 ± 0.14
ACUCAGCAAUAUUACGACCG	-0.553 ± 0.16	-1 ± 0.15
ACUCAGCAAUAUUACGACGU	-0.498 ± 0.063	0.168 ± 0.082
ACUCAGCAAUAUUACGAUAC	-0.894 ± 0.13	-0.656 ± 0.19
ACUCAGCAAUAUUACGAUCC	-3.06 ± 0.37	–
ACUCAGCAAUAUUACGAUGA	-1.82 ± 0.12	-0.791 ± 0.11
ACUCAGCAAUAUUACGCAGU	-3.55 ± 0.16	-2.28 ± 0.17
ACUCAGCAAUAUUACGCCCC	-1.48 ± 0.12	0.148 ± 0.18
ACUCAGCAAUAUUACGCGGG	-2.91 ± 0.15	-2.68 ± 0.18
ACUCAGCAAUAUUACGGCAG	-1.52 ± 0.089	-0.501 ± 0.093
ACUCAGCAAUAUUACGGCUU	-0.0445 ± 0.067	0.494 ± 0.086
ACUCAGCAAUAUUACGGUCA	-1.11 ± 0.11	-1.05 ± 0.1
ACUCAGCAAUAUUACGUAGA	-1.41 ± 0.066	-0.457 ± 0.092
ACUCAGCAAUAUUACGUAGU	-2.86 ± 0.13	-1.35 ± 0.12
ACUCAGCAAUAUUACGUGAA	-1.27 ± 0.053	0.294 ± 0.086
ACUGAGCAAUAUUACGAAGG	-2.53 ± 0.18	-2.02 ± 0.24
ACUGAGCAAUAUUACGAGGG	-2.5 ± 0.18	-2.21 ± 0.33
ACUGAGCAAUAUUACGAGUU	-2.88 ± 0.17	-2.91 ± 0.28
ACUGAGCAAUAUUACGCCAU	-2.4 ± 0.16	-2.74 ± 0.27
ACUGAGCAAUAUUACGCGGA	-1.94 ± 0.1	-1.74 ± 0.12

Sequence	self-splicing fitness (ln) (30 °C)	self-splicing fitness (ln) (37 °C)
ACUGAGCAAUAUUACGCGGC	-3.69 ± 0.4	-2.28 ± 0.28
ACUGAGCAAUAUUACGCGGG	-2.64 ± 0.17	-2.03 ± 0.18
ACUGAGCAAUAUUACGCUAU	-3.58 ± 0.15	-2.42 ± 0.14
ACUGAGCAAUAUUACGGACA	-2.8 ± 0.22	-2.27 ± 0.17
ACUGAGCAAUAUUACGGAGC	-2.54 ± 0.23	-1.44 ± 0.28
ACUGAGCAAUAUUACGUAGC	-3.07 ± 0.12	-1.66 ± 0.13
ACUGAGCAAUAUUACGUCAU	-4.08 ± 0.39	-2.26 ± 0.19
ACUGAGCAAUAUUACGUUAA	-4.3 ± 0.42	-2.15 ± 0.28
ACUGAGCAAUAUUACGUUUC	-3.19 ± 0.27	-2.6 ± 0.23
ACUUAGCAAUAUUACGACAC	-2.03 ± 0.14	-0.762 ± 0.2
ACUUAGCAAUAUUACGACUC	-1.05 ± 0.12	-0.137 ± 0.15
ACUUAGCAAUAUUACGAUAU	-1.62 ± 0.087	-1.18 ± 0.11
ACUUAGCAAUAUUACGAUCU	-0.0945 ± 0.076	0.51 ± 0.1
ACUUAGCAAUAUUACGCACC	-1.99 ± 0.23	0.826 ± 0.29
ACUUAGCAAUAUUACGCCUA	-0.829 ± 0.29	0.394 ± 0.2
ACUUAGCAAUAUUACGCCUC	-2.19 ± 0.26	-1.64 ± 0.3
ACUUAGCAAUAUUACGCGUU	-2.5 ± 0.12	-2.05 ± 0.12
ACUUAGCAAUAUUACGGAAG	-2.44 ± 0.13	-1.25 ± 0.14
ACUUAGCAAUAUUACGGGAC	-3.61 ± 0.19	-2.03 ± 0.17
ACUUAGCAAUAUUACGGUAG	-3.35 ± 0.23	-1.83 ± 0.23
ACUUAGCAAUAUUACGGUCC	-2.46 ± 0.12	-1.33 ± 0.12
ACUUAGCAAUAUUACGGUGA	-1.76 ± 0.15	-1.56 ± 0.15
ACUUAGCAAUAUUACGUAGU	-2.87 ± 0.11	-2.73 ± 0.19
